For assay [1], the target named is T1, MHC-related protein 1 (MR1), hpMR1 (Homo sapiens, UniProt Q95460). The assay is described as follows: DSF of refolded complex. Type of assay: binding.
Assay [2] deals with T1, MHC-related protein 1 (MR1), hpMR1. The assay is described as follows: 1D […] NMR titration. Type of assay: binding.
Assay [3] addresses TAPBPR^WT (luminal domain of TAPBPR C94S). Nature of the assay: SPR.

Turning to `O=Cc1c(O)ccc2ccccc12` [2OH1NA, 2-hydroxy-1-naphthaldehyde], in assay [1], the “DSF of refolded complex (Tm 55.3 °C); NMR methyl HMQC” value was found to be 55.3 °C.
Broadly, the Kd is the concentration at which binding is half-saturated. The molecule `O=C(O)Cc1ccccc1Nc1c(Cl)cc(F)cc1Cl` [19F-DCF, 2-(2-((2,6-dichloro-4-fluorophenyl)amino)phenyl)acetic acid] came in with a Kd in assay [2] of 36.1 µM. In other words, the double-digit micromolar range.
“Ac-6-FP loaded hMR1 C262S/hβ2m (from UniProt P61769 21-119) (complex)” showed a Kd in assay [3] of 100 µM.
“Ac-6-FP loaded hMR1/hβ2m (wild type) (from UniProt P61769 21-119) (complex)” registered a Kd in assay [3] of 100 µM.
On the same count and under the same terms, with “Ac-6-FP–hpMR1–bβ2m (from UniProt Q95460 23-290; P01888 21-118) (complex)” the figure was 104 µM; with “TAX9/HLA-A*02:01/hβ2m (from UniProt P61769 21-119) (peptide-MHC)”, 18.5 µM; with “UV-irradiated HLA-A*02:01/hβ2m (empty, peptide-deficient) (from UniProt P61769 21-119) (complex)”, 0.082 µM.

Source of the values: paper PMC9703140 (Nature chemical biology, 2022).
